pKd: −log10 of the molar value.
Experiments:
Settings in all cases: room temperature 30-45 min, BLI: 20 mM Tris-HCl pH 7.4, 80 mM NaCl, 20 mM KCl, 1 mM DTT
[1] = tested on: Hantavirus nucleocapsid protein (NP), wild type (Sin Nombre virus); experiment: filter binding
[2] = tested on: Hantavirus nucleocapsid protein (NP), wild type (Sin Nombre virus); experiment: filter binding; remark: listed apart in the source
[3] = tested on: Hantavirus nucleocapsid protein (NP), wild type (Sin Nombre virus); experiment: filter binding; remark: listed apart in the source
[4] = tested on: Hantavirus nucleocapsid protein (NP), wild type (Sin Nombre virus); experiment: filter binding; remark: listed apart in the source
[5] = tested on: Hantavirus nucleocapsid protein (NP), wild type (Sin Nombre virus); experiment: BLI

Substance	pKd [1]	pKd [2]	pKd [3]	pKd [4]	pKd [5]
Mutant 1 (VCP 5' UTR nt 1-542)	7.37	–	–	–	–
Mutant 2 (VCP 5' UTR nt 542-988)	5.72	5.80	–	–	–
Mutant 3 (mutant 1 lacking nt 530-542)	5.62	–	5.62	–	–
Mutant 4 (wild type UTR lacking nt 530-542)	5.41	–	–	5.85	–
VCP mRNA 5' UTR wild type	7.33	–	–	–	7.60
